Measured values reported in article PMC9482650, “Quantitative fragmentomics allow affinity mapping of interactomes” (Nature Communications, 2022).

Columns and labels:
Experiment in all cases: holdup assay
Parameters in all cases: key: below the threshold = too weak to quantify, mostly under pKd 3.1 to 4
[1] = target: T1, ARHGAP21, Q5T5U3; details: plain residues with an end cap or a label only (N-terminal biotin on a linker: ttds)
T1 sequence (Q5T5U3 45-169, limits assumed, looked up): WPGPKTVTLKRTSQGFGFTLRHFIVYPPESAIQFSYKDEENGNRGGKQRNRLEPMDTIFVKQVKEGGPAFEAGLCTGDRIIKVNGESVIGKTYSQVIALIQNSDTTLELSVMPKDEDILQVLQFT

[2] = target: T2, PDZD2_2, O15018; details: plain residues with an end cap or a label only (N-terminal biotin on a linker: ttds)
T2 sequence (O15018 329-429, limits assumed, looked up): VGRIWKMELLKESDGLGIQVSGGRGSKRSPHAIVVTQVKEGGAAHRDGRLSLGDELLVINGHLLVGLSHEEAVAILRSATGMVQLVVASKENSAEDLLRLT

[3] = target: T3, ARHGEF11, O15085
T3 sequence (O15085 42-136, limits assumed, looked up): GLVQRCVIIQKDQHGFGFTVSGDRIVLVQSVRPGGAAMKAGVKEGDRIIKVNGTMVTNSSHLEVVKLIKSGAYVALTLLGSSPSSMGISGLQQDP

[4] = target: T4, SNTA1, Q13424
T4 sequence (Q13424 82-180, limits assumed, looked up): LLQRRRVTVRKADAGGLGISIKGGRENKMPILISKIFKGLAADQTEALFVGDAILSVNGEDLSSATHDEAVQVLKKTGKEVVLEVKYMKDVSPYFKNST

[5] = target: GRID2IP_2, A4D2P6; details: plain residues with an end cap or a label only (N-terminal biotin on a linker: ttds)
[6] = target: T5, LRRC7, Q96NW7; details: plain residues with an end cap or a label only (N-terminal biotin on a linker: ttds)
T5 sequence (Q96NW7 1440-1537, limits assumed, looked up): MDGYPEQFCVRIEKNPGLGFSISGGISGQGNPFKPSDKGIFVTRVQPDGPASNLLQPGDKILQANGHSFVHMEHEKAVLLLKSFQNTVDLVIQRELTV

[7] = target: Inadl_1, Q8NI35; details: plain residues with an end cap or a label only (N-terminal biotin on a linker: ttds)
[8] = target: T6, APBA1_2, Q02410; details: plain residues with an end cap or a label only (N-terminal biotin on a linker: ttds)
T6 sequence (Q02410 742-832, limits assumed, looked up): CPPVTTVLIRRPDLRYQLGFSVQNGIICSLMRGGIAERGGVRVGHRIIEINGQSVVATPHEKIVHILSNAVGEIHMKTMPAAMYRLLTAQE

[9] = target: GIPC2, Q8TF65; details: plain residues with an end cap or a label only (N-terminal biotin on a linker: ttds)
[10] = target: T7, SYNJ2BP, P57105; details: plain residues with an end cap or a label only (N-terminal biotin on a linker: ttds)
T7 sequence (P57105 8-110, limits assumed, looked up): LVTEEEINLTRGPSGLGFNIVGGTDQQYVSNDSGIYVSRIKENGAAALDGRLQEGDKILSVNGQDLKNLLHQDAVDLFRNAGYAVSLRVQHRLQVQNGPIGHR

[11] = target: FRMPD3, Q5JV73; details: plain residues with an end cap or a label only (N-terminal biotin on a linker: ttds)
[12] = target: T8, PARD3B_1, Q8TEW8; details: plain residues with an end cap or a label only (N-terminal biotin on a linker: ttds)
T8 sequence (Q8TEW8 196-299, limits assumed, looked up): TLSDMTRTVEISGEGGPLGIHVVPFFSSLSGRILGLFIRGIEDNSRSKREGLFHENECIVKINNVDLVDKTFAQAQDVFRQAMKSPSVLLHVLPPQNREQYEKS

[13] = target: T9, SHANK1, Q9Y566; details: plain residues with an end cap or a label only (N-terminal biotin on a linker: ado-ado)
T9 sequence (Q9Y566 658-767, limits assumed, looked up): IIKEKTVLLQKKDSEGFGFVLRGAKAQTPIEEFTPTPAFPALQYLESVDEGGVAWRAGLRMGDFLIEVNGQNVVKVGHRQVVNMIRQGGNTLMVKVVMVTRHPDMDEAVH

[14] = target: NHERF4_4, Q86UT5; details: plain residues with an end cap or a label only (N-terminal biotin on a linker: ado-ado)
[15] = target: T10, APBA2_1, Q99767; details: plain residues with an end cap or a label only (N-terminal biotin on a linker: ado-ado)
T10 sequence (Q99767 563-664, limits assumed, looked up): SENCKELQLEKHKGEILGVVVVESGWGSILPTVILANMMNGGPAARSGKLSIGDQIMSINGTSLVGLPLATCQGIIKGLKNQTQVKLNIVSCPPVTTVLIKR

[16] = target: TJP1_3, Q07157; details: plain residues with an end cap or a label only (N-terminal biotin on a linker: ado-ado)
[17] = target: SNX27, Q96L92; details: plain residues with an end cap or a label only (N-terminal biotin on a linker: ado-ado)
[18] = target: DLG1_2, Q12959; details: plain residues with an end cap or a label only (N-terminal biotin on a linker: ado-ado)
[19] = target: T11, MPDZ_10, O75970; details: plain residues with an end cap or a label only (N-terminal biotin on a linker: ado-ado)
T11 sequence (O75970 1624-1722, limits assumed, looked up): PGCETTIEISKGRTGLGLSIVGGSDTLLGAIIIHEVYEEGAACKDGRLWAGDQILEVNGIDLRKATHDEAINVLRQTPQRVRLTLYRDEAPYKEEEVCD

[20] = target: GRIP2_5, Q9C0E4; details: plain residues with an end cap or a label only (N-terminal biotin on a linker: ado-ado)
[21] = target: Inadl_9, Q8NI35; details: plain residues with an end cap or a label only (N-terminal biotin on a linker: ado-ado)
[22] = target: DLG1_3, Q12959; details: plain residues with an end cap or a label only (N-terminal biotin on a linker: ado-ado)
[23] = target: T12, TIAM2, Q8IVF5; details: plain residues with an end cap or a label only (N-terminal biotin on a linker: ado-ado)
T12 sequence (Q8IVF5 885-986, limits assumed, looked up): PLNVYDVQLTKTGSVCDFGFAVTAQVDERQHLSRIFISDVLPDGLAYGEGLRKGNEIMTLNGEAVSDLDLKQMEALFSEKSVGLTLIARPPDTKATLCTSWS

[24] = target: MAGI2_2, Q86UL8; details: plain residues with an end cap or a label only (N-terminal biotin on a linker: ado-ado)
[25] = target: FRMPD2_1, Q68DX3; details: plain residues with an end cap or a label only (N-terminal biotin on a linker: ado-ado)
[26] = target: PDZRN4_1, Q6ZMN7; details: plain residues with an end cap or a label only (N-terminal biotin on a linker: ado-ado)
[27] = target: DLG4_2, P78352; details: plain residues with an end cap or a label only (N-terminal biotin on a linker: ado-ado)
[28] = target: MAGI2_4, Q86UL8; details: plain residues with an end cap or a label only (N-terminal biotin on a linker: ado-ado)
[29] = target: T13, TX1BP3, O14907; details: plain residues with an end cap or a label only (N-terminal biotin on a linker: ado-ado)
T13 sequence (O14907 10-122, limits assumed, looked up): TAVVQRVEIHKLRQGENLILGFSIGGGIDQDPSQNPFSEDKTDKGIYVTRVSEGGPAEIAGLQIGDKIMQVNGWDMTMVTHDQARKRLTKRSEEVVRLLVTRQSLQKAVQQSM

[30] = target: T14, SNTG1, Q9NSN8; details: plain residues with an end cap or a label only (N-terminal biotin on a linker: ado-ado)
T14 sequence (Q9NSN8 52-150, limits assumed, looked up): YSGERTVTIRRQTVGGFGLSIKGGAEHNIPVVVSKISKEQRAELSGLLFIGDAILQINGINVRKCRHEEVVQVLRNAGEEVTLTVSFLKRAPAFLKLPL

[31] = target: CASK, O14936; details: plain residues with an end cap or a label only (N-terminal biotin on a linker: ado-ado)
[32] = target: Inadl_8, Q8NI35; details: plain residues with an end cap or a label only (N-terminal biotin on a linker: ado-ado)
[33] = target: TJP1_2, Q07157; details: plain residues with an end cap or a label only (N-terminal biotin on a linker: ado-ado)
[34] = target: ARHGEF12, Q9NZN5-2; details: plain residues with an end cap or a label only (N-terminal biotin on a linker: ado-ado)
[35] = target: T15, DLG3_1, Q92796; details: plain residues with an end cap or a label only (N-terminal biotin on a linker: ado-ado)
T15 sequence (Q92796 125-227, limits assumed, looked up): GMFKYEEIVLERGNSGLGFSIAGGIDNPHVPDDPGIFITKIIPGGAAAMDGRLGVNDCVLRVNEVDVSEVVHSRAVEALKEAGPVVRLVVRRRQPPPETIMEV

[36] = target: NHERF4_1, Q86UT5-2; details: plain residues with an end cap or a label only (N-terminal biotin on a linker: ado-ado)
[37] = target: Inadl_4, Q8NI35; details: plain residues with an end cap or a label only (N-terminal biotin on a linker: ado-ado)
[38] = target: IL16_4, Q14005; details: plain residues with an end cap or a label only (N-terminal biotin on a linker: ado-ado)
[39] = target: T16, DLG3_3, Q92796; details: plain residues with an end cap or a label only (N-terminal biotin on a linker: ado-ado)
T16 sequence (Q92796 374-475, limits assumed, looked up): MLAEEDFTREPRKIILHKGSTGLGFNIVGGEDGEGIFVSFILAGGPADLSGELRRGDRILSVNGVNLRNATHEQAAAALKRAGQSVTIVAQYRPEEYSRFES

[40] = target: DLG4_1, P78352; details: plain residues with an end cap or a label only (N-terminal biotin on a linker: ado-ado)
[41] = target: HTRA2, O43464; details: plain residues with an end cap or a label only (N-terminal biotin on a linker: ado-ado)
[42] = target: GRIP2_6, Q9C0E4; details: plain residues with an end cap or a label only (N-terminal biotin on a linker: ado-ado)
[43] = target: DLG2_2, Q15700; details: plain residues with an end cap or a label only (N-terminal biotin on a linker: ado-ado)
[44] = target: MAGI3_2, Q5TCQ9; details: plain residues with an end cap or a label only (N-terminal biotin on a linker: ado-ado)
[45] = target: PTPN3, P26045; details: plain residues with an end cap or a label only (N-terminal biotin on a linker: ado-ado)
[46] = target: T17, NHERF3_3, Q5T2W1; details: plain residues with an end cap or a label only (N-terminal biotin on a linker: ado-ado)
T17 sequence (Q5T2W1 238-333, limits assumed, looked up): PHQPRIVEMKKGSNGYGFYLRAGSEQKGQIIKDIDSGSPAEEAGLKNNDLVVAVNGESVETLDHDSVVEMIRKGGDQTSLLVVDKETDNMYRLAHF

[47] = target: MAST2, Q6P0Q8; details: plain residues with an end cap or a label only (N-terminal biotin on a linker: ado-ado)
[48] = plain residues with an end cap or a label only (N-terminal biotin on a linker: ttds)
[49] = plain residues with an end cap or a label only (N-terminal biotin on a linker: ado-ado)

TJP1_3, Q07157, sequence (Q07157 416-512): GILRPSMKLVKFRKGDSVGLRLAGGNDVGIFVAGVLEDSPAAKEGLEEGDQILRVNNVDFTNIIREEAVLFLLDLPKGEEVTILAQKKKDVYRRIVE
ARHGEF12, Q9NZN5-2, sequence (Q9NZN5 other isoform, or with tags, fused parts or gaps): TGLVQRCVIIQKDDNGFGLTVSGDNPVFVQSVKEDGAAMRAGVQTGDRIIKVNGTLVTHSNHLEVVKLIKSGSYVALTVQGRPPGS
NHERF4_4, Q86UT5, sequence (Q86UT5 464-550): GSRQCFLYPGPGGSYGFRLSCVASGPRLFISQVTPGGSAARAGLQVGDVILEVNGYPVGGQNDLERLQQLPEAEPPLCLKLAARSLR
DLG2_2, Q15700, sequence (Q15700 189-283): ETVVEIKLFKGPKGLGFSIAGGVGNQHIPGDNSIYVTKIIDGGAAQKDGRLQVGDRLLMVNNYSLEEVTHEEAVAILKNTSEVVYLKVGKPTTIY
IL16_4, Q14005, sequence (Q14005 1229-1329): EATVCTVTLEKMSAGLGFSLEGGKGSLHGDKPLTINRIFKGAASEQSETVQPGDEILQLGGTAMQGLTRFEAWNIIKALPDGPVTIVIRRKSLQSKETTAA
TJP1_2, Q07157, sequence (Q07157 181-274): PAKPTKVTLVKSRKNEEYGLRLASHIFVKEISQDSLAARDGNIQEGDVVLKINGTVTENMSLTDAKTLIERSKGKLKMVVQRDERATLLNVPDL
HTRA2, O43464, sequence (O43464 355-458): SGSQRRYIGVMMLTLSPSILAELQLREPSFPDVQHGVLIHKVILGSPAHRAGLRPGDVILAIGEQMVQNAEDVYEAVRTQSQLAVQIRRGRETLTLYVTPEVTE
NHERF4_1, Q86UT5-2, sequence (Q86UT5 other isoform, or with tags, fused parts or gaps): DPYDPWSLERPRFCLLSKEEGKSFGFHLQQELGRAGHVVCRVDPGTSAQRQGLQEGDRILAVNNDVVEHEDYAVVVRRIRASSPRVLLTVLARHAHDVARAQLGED
DLG4_1, P78352, sequence (P78352 62-152): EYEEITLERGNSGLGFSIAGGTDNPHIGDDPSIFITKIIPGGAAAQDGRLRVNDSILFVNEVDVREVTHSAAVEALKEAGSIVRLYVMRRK
MAST2, Q6P0Q8, sequence (Q6P0Q8 1099-1202): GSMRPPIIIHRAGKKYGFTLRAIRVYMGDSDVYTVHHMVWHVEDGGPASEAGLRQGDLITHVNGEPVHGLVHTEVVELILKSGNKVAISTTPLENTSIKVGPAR
GRIP2_6, Q9C0E4, sequence (Q9C0E4 648-740): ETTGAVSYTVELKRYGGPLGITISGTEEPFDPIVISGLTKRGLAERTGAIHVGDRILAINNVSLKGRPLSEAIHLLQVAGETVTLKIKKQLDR
GIPC2, Q8TF65, sequence (Q8TF65 112-203): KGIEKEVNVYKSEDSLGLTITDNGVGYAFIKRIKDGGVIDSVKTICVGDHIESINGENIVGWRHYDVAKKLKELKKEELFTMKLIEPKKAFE
CASK, O14936, sequence (O14936 487-570): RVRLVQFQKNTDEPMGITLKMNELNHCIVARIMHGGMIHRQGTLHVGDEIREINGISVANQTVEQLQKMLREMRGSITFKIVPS
MAGI3_2, Q5TCQ9, sequence (Q5TCQ9 398-503): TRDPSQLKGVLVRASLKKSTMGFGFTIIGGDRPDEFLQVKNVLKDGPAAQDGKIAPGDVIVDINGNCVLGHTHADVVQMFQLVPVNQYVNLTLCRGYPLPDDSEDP
FRMPD2_1, Q68DX3, sequence (Q68DX3 770-861): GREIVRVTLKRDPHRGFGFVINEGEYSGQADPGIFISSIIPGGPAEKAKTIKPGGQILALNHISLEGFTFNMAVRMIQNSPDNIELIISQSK
DLG1_3, Q12959, sequence (Q12959 457-571): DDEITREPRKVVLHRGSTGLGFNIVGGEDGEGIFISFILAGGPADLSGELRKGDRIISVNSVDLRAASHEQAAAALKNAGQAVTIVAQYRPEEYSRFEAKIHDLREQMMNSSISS
DLG1_2, Q12959, sequence (Q12959 314-412): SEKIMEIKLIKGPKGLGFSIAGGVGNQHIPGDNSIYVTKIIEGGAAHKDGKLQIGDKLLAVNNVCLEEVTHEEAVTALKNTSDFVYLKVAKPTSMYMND
FRMPD3, Q5JV73, sequence (Q5JV73 12-100): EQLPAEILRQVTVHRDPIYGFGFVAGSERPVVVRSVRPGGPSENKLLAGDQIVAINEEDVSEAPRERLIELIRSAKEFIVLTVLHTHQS
Inadl_1, Q8NI35, sequence (Q8NI35 113-229): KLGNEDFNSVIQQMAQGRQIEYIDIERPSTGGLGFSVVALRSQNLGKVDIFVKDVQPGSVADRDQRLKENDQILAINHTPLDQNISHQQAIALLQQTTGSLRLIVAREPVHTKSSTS
PTPN3, P26045, sequence (P26045 505-587): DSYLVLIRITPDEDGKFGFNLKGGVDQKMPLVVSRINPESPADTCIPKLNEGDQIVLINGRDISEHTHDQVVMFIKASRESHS
GRID2IP_2, A4D2P6, sequence (A4D2P6 272-370): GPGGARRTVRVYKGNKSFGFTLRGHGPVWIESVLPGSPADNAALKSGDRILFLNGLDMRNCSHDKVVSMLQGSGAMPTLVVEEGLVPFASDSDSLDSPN
Inadl_4, Q8NI35, sequence (Q8NI35 547-651): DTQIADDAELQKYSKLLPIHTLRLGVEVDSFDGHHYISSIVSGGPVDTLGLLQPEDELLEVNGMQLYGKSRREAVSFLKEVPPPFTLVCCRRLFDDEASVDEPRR
GRIP2_5, Q9C0E4, sequence (Q9C0E4 544-642): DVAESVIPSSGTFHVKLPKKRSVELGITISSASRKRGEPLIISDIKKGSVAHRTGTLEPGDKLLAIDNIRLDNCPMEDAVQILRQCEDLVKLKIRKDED
PDZRN4_1, Q6ZMN7, sequence (Q6ZMN7 213-318): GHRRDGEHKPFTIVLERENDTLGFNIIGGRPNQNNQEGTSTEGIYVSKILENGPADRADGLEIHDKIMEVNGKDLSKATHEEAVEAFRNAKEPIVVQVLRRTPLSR
MAGI2_4, Q86UL8, sequence (Q86UL8 772-865): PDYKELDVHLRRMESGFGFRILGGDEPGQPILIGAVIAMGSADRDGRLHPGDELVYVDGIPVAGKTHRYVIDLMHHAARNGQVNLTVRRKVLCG
Inadl_9, Q8NI35, sequence (Q8NI35 1530-1615): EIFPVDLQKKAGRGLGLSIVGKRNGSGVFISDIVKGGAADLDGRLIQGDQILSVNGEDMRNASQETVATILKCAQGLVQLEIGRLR
Inadl_8, Q8NI35, sequence (Q8NI35 1425-1530): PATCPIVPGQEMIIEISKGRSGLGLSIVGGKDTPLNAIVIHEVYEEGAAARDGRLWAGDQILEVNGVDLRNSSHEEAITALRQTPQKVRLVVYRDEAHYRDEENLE
MAGI2_2, Q86UL8, sequence (Q86UL8 410-522): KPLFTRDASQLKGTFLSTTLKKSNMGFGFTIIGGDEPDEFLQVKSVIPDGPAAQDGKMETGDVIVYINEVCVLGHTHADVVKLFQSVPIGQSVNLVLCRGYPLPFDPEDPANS
DLG4_2, P78352, sequence (P78352 155-259): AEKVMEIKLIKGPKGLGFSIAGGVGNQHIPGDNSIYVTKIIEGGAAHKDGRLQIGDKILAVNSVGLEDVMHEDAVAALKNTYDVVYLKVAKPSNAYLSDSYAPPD

NDPAWDETNL [ARHGEF7, Q14155] showed a pKd [1] of 3.82, a pKd [2] of 3.82 and a pKd [3, 48] of 3.69. It also gave a pKd [4, 48] of 3.88, a pKd [5] of 3.63 and a pKd [6] of 3.49. The pKd [7] was 3.51, the pKd [8] was 3.5 and the pKd [9] was 3.61. The pKd [10] was 3.8, the pKd [11] was 3.65 and the pKd [12] was 3.54.

KSGKQTMLVV [TRIM29, Q14134] showed a pKd [13] of 3.52, a pKd [14] of 3.8 and a pKd [3, 49] of 3.89. For the same binder, the pKd [4, 49] was 3.49, the pKd [15] was 3.5 and the pKd [16] was 3.61. The pKd [17] was 3.8, the pKd [18] was 3.67 and the pKd [19] was 3.48. It also gave a pKd [20] of 3.59, a pKd [21] of 3.49 and a pKd [22] of 3.69. The pKd [23] was 3.64, the pKd [24] was 3.51 and the pKd [25] was 3.47. For the same binder, the pKd [26] was 3.68, the pKd [27] was 3.79 and the pKd [28] was 3.55. It also gave a pKd [29] of 3.88, a pKd [30] of 3.5 and a pKd [31] of 3.48. It also gave a pKd [32] of 3.69, a pKd [33] of 3.88 and a pKd [34] of 3.68. It also gave a pKd [35] of 3.63, a pKd [36] of 3.6 and a pKd [37] of 3.49. For the same binder, the pKd [38] was 3.65, the pKd [39] was 3.81 and the pKd [40] was 3.56. It also gave a pKd [41] of 3.68, a pKd [42] of 3.55 and a pKd [43] of 3.48. The pKd [44] was 3.5, the pKd [45] was 3.71 and the pKd [46] was 3.75. It also gave a pKd [47] of 3.62.
